According to PMC11208158, “Structural mechanism of bridge RNA-guided recombination”:

Assays:
IS621 recombinase [1] = target: T1, IS621 recombinase (Escherichia coli, UniProt A0A0E0Y1P1 1-326); test: cryo-EM; initial synaptic complex; MST: 20 nM labelled IS621, RNA 0.076-250 nM, 37 C; labelled protein eluted in 20 mM Tris-HCl pH 7.5, 500 mM NaCl, 5 mM MgCl2, 1 mM DTT, 0.01% Tween 20; conditions: protein: recombinant; tags: N-terminal His8, Twin-Strep, HRV 3C site (tag removal not described); chain copies: 4; S6:S5 and S14:S13 duplexes with 6-nt mismatches at positions 2-7; TBL and DBL from two bRNA copies
IS621 recombinase [2] = target: T1, IS621 recombinase; test: MST; 5 mM Mg2+; MST: 20 nM labelled IS621, RNA 0.076-250 nM, 37 C; labelled protein eluted in 20 mM Tris-HCl pH 7.5, 500 mM NaCl, 5 mM MgCl2, 1 mM DTT, 0.01% Tween 20; conditions: protein: recombinant; tags: N-terminal His8, Twin-Strep, HRV 3C site (tag removal not described); chain copies: 4; 5' stem loop, TBL and DBL

Row | Binder | binding result (IS621 recombinase [1]) | Kd (IS621 recombinase [2]) [nM]
1 | WT bRNA + 38-bp tDNA 6mm + 44-bp dDNA 6mm (mixed) RNA: GGGAGUGCAGAGAAAAUCGGCCAGUUUUCUCUGCCUGCAGUCCGCAUGCCGUAUCGGGCCUUGGGUUCUAACCUGUUGCGUAGAUUUAUGCAGCGGACUGCCUUUCUCCCAAAGUGAUAAACCGGACAGUAUCAUGGACCGGUUUUCCCGGUAAUCCGUAUUUGCAAGGUUGGUUUCACU DNA 1: GCCGGGTAATACCACCAAGTCTTCTACAGATGAGCTCG DNA 2: CGAGCTCATCTGTAGGCCTGATGGTGGTATTACCCGGC DNA 3: TGCAGGCCATAAGTCATACTTGTATTATCCCTCCAGTGCAGAGA DNA 4: TCTCTGCACTGGAGGGATAATACAAGATACTGTTATGGCCTGCA | binds | –
2 | WT bRNA (177 nt) (structured_RNA) RNA: AGUGCAGAGAAAAUCGGCCAGUUUUCUCUGCCUGCAGUCCGCAUGCCGUAUCGGGCCUUGGGUUCUAACCUGUUGCGUAGAUUUAUGCAGCGGACUGCCUUUCUCCCAAAGUGAUAAACCGGACAGUAUCAUGGACCGGUUUUCCCGGUAAUCCGUAUUUGCAAGGUUGGUUUCACU | – | 3 ± 1
